The supplement of paper PMC9170038

Tested on: K4 kissing-loop RNA reporter
Test: apparent KD of K4 kissing-loop reporter; higher = weaker reporter binding
Settings: Eterna round: R107
Experimental: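 RNA-MaP round R107: designed RNA switches with theophylline, tryptophan, arginine or FMN aptamers are transcribed on-chip within common flanks. They are titrated with a labelled K4 kissing-loop RNA reporter in RNA-MaP buffer (100 mM Tris pH 7.5, 80 mM KCl, 4 mM MgCl2), without ligand or with the indicated ligand. Median apparent KD per design.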

[1] = input ligand: theophylline 20 uM
[2] = input ligand: tryptophan 2.4 mM
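Also: bound reporter read as fluorescence of individual clusters on recovered sequencing chips by microscopy, with normalized cluster intensities fitted with a binding model.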

Sequence | apparent KD of K4 kissing-loop reporter (input ligand: FMN 200 uM) | apparent KD of K4 kissing-loop reporter (input ligand: arginine 13.2 mM) | apparent KD of K4 kissing-loop reporter (input ligand: none) | apparent KD of K4 kissing-loop reporter [1] | apparent KD of K4 kissing-loop reporter [2]
GGACCUCAGUGAUGUUGAGGUAACACUGAUACCAGCGACUUAAUUCGCCCUUGGCAGCAGUCCACCGAGGUAUCUGAUUAGGUCU [#23 K4 Theophylline A Exclusion] | 211 nM | 220 nM | 216 nM | 287 nM | 190 nM
GGAGAGGUCUUGUUUGGAUGUGAUUAAUGGCGAGGACCGGUACGGCCGCCACUCGGGUGAUGUUAGUGAUGUUGAUGUAGUGAUG [uyumullin] | 150 nM | 103 nM | 114 nM | 206 nM | 109 nM
GGAGCAGUGAUGUUGCUUGUAAUGCAUUCAGAGGAUAUUCGUUUGGGAAGAAGGCUGAAUCGUUCUUCGAGUGAUGUUCGAGGAU [Same State FMN A GF 16] | 154 nM | 154 nM | 156 nM | 148 nM | 138 nM
GGAGGAGAAUAUGAUACCAGCAGAGAGAGAGAGGAAGUAUAGUGAUGUUAUAUGUGAGAAUGCCCUUGGCAGCAUAACAAGAAGG [whbob_SS_Theo_B_sa88] | 121 nM | 225 nM | 194 nM | 116 nM | 122 nM
GGAUAGGACAGAGGAUAUGGGCUAGGCAAGAAUAACUUGUCUAGCAAAUCCAUGAGGAGUGAUGUUCCAGAAGGCUGUCCUAUCG [FmnBX 1 - #SwitchBubble #StraticStem #DoubleMagnetSystem] | 375 nM | 167 nM | 114 nM | 177 nM | 143 nM
GGAUAGGACAUAGGAUAUGGUAGUGAUGUUACCAAACUGGUUAAACAUGUCAGAAAACUGGCAUGACCAGAAGGAUGUCCUAUCG [FmnBX 27 U11+A75] | 85.2 nM | 63.2 nM | 66.3 nM | 58.8 nM | 63.5 nM
GGAUAGGAUAGAGGAUAUGGCUUACACAGAAAUAACUUGUUGUGUUUAUCCAUAGGGAGUGAUGUUCCAGAAGGCUGUCCUAUCG [MatMod 19 - Jieux - Exclusion - FMN B] | 743 nM | 197 nM | 210 nM | 232 nM | 161 nM
GGAUAGGAUAGAGGAUAUGGGCUAGGCAAGAAUAACUUGUCUAGCAAAUCCAUGAGGAGUGAUGUUCCAGAAGGCUAUCCUAUCG [FmnBX 1 U9+A77] | 960 nM | 160 nM | 164 nM | 145 nM | 155 nM
GGAUAGGAUAGAGGAUAUGGUAGUGAUGUUACCAAACUGGUUAAACAUGUCAGAAAACUGGCAUGACCAGAAGGCUGUCCUAUCG [FmnBX 27 U9] | 102 nM | 63.4 nM | 71 nM | 70.5 nM | 69.8 nM
GGAUCCACCAGUGAUGUUGGAGAAAACUUCAAGGAUAUGACGAAAGUCAGAAGGUGAUAGACUGGACAAAGUCCGGUCGGAUCCA [FmnA 19 U29+A57] | 552 nM | 729 nM | 454 nM | 527 nM | 462 nM
GGAUGGUAGGCGGCCGCCACUAAAUGUGAACACAUACAAGCCAGUGAUGUUGGUAUGAUGGACAAUAGGACCGGGCCUAGAUAGA [Exclusion - Tryptophan B (Freestyle 7)] | 595 nM | 448 nM | 555 nM | 495 nM | 542 nM
